Reference: patent US20210246200A1 (UNIVERSIT T Z RICH, published 2021)

B1: 104347 (antibody, V domains shown)
VH: QVQLVESGGGVVQPGRSLRLSCAASGYTFSSYLIEWVRQAPGKGLEWVAVINPGSGGTNYADSVKGRFTISADKSKNTAYLQMNSLRAEDTAVYYCARWRGDGYYAYFDVWGQGTTVTVSS
VL: EIVLTQSPATLSVSPGERATLSCRASQSVSYDGDSYMNWYQQKPGQAPRLLIYAASNLASGIPARFSGSGSGTEFTLTISSLQSEDAAVYYCQQSNEDPYTFGGGTKVEIK
notes: VH3s/VK3s
B2: NARA1 (antibody, mouse IgG2a, kappa, V domains shown)
VH: QVQLQQSGAELVRPGTSVKVSCKASGYAFTNYLIEWVKQRPGQGLEWIGVINPGSGGTNYNEKFKGKATLTADKSSSTAYMQLSSLTSDDSAVYFCARWRGDGYYAYFDVWGAGTTVTVSS
VL: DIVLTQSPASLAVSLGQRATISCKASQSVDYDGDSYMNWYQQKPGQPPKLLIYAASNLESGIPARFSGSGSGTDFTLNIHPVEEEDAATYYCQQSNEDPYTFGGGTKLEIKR
notes: Mouse monoclonal anti-human IL-2 antibody, mouse IgG2a; also called anti-IL-2 (NARA1)-mIgG2a; anti-IL-2 (NARA1)-mouse IgG2a
B3: 104343 (antibody, human IgG1, kappa, N297A, V domains shown)
VH: QVQLVQSGAEVKKPGSSVKVSCKASGYAFTNYLIEWVRQAPGQGLEWMGVINPGSGGTNYNEKFKGRVTITADKSTSTAYMELSSLRSEDTAVYYCARWRGDGYYAYFDVWGQGTTVTVSS
VL: DIVLTQSPLSLPVTLGQPASISCKASQSVDYDGDSYMNWYQQRPGQSPRLLIYAASNLESGVPDRFSGSGSGTDFTLKISRVEAEDVGVYYCQQSNEDPYTFGGGTKVEIKR
notes: VH1/VK2, human IgG1 N297A
B4: 104348 (antibody, human IgG1, kappa, N297A, V domains shown)
VH: EVQLVQSGAEVKKPGESLKISCKGSGYAFTNYLIEWVRQMPGKGLEWMGVINPGSGGTNYNEKFKGQVTISADKSISTAYLQWSSLKASDTAMYYCARWRGDGYYAYFDVWGQGTTVTVSS
VL: AIRLTQSPSSFSASTGDRVTITCKASQSVDYDGDSYMNWYQQKPGKAPKLLIYAASNLESGVPSRFSGSGSGTDFTLTISSLQSEDFATYYCQQSNEDPYTFGGGTKVEIKR
notes: VH5/VK1, human IgG1 N297A
B5: 104349 (antibody, V domains shown)
VH: B4 VH
VL: DIVLTQSPLSLPVTLGQPASISCKASQSVDYDGDSYMNWYQQRPGQSPRLLIYAASNLESGVPDRFSGSGSGTDFTLKISRVEAEDVGVYYCQQSNEDPYTFGGGTKVEIK
notes: VH5/VK2

molecular target: T1, human IL-2 (wildtype) (human, UniProt P60568 21-153); assay: SET assay (solution equilibration titration, MSD)
T1 construct: also called IL-2 (WT); IL-2 wt
T1 sequence (P60568 21-153 limits assumed): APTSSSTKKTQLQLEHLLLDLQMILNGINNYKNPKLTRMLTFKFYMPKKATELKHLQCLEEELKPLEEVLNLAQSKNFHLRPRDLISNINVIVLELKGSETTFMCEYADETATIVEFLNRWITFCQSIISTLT

binding result | Binder
binds | B1
binds | B2
binds | B3
binds | B4
binds | B5

molecular target: T2, Proleukin® (aldesleukin) (human, UniProt P60568 21-153, limits assumed); assay: ELISA, coated Proleukin, mean of 3 experiments;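 note: binding of anti-human IL-2 antibodies, tested as an 11-point dilution series for 2 hours, to plate-bound IL-2, detected via streptavidin-HRP with absorbance read at 450 nm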
T2 construct: Variant of human wt IL-2 with C145S (C125S on mature IL-2); also called IL-2 (Proleukin®); human IL-2 (Proleukin)
T2 sequence (P60568 other isoform, or with tags, fused parts or gaps limits assumed): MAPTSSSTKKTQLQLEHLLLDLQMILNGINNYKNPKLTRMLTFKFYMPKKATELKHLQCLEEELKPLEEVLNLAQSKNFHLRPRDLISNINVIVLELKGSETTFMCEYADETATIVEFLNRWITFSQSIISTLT
Method: ELISA plates (Corning) were coated with human IL-2 (Proleukin) at 10 μg/mL in PBS overnight at 4° C. The plates were washed 6 times with PBST, then blocked in 1% BSA/PBST for 2 hours. After blocking and washing, the anti-human IL-2 antibodies were added on the plate in an 11-point dilution series in 1% BSA/PBST and incubated for 2 hours. […] The plates were then washed again and incubated with Streptavidin-Horseradish Peroxidase in 1% BSA/PBS for 45 minutes. After washing, the substrate (R&D Systems) was added into the plates and the enzymatic reaction was stopped after 3 minutes by adding Stop Solution. The plates were read by a microplate reader at 450 nm with a wavelength correction set to 540 nm.

EC50 [nM] | Binder
39 | B1
0.3 | B2
0.3 | B3
0.3 | B4
0.3 | B5

molecular target: T2, Proleukin® (aldesleukin); assay: SET assay (solution equilibration titration, MSD)
Method: A 22 serial 2n dilution of the antigen was prepared in sample buffer. A constant concentration of the antibody was added. […] A volume of 60 μl of each antigen:antibody mix was distributed in duplicates to a 384-well polypropylene microtiter plate (PP MTP). Sample buffer served as negative control and a sample containing no antigen as positive control (Bₘₐₓ). The plate was sealed and incubated overnight (o/n) at room temperature (RT). A 384-well standard MSD array plate was coated o/n with 2 μg/ml of IL-2. After three times washing with washing buffer, the plate was blocked with 50 μl/well blocking buffer for 1 hour at RT. After washing, a volume of 30 μl/well of the antigen:antibody mix was transferred from the PP MTP to the coated MSD plate and incubated for 20 min at RT. After an additional wash step, 30 μl of detection antibody (diluted 1:2000) in sample buffer was added to each well and incubated for 30 min at RT. The MSD plate was washed and 35 μl/well of read buffer was added and incubated for 5 min. ECL signals were measured with the MSD SECTOR Imager 6000.

Kd [nM] | Binder
10 | B1
0.078 | B2
0.075 | B3
0.105 | B4
0.082 | B5
